Measurements published in patent US20220380409A1.
Ends that are not written are not given here. Tz4 = ring closure through triazole, 4-carbon linker to triazole

Biological target: full-length Akt2 protein (Homo sapiens (Human)) (UniProt P31751)
Test: affinity estimation from immunoassays capturing full-length Akt2 protein (FIG. 6D)

fold higher affinity than the corresponding linear peptide: 30 fold
B1: Cy(YYTYT (SEQ ID NO:4)-Tz4) (peptide)
peptide: YYTYT
modifications: triazole (positions not given here) via Tz4; also: ring closed via triazole between non-natural alkyne and azide residues flanking the sequence, variable region only, constant region not given here
